According to US10703820B2, “Methods and compositions for reducing cardiac damage and other conditions” (Tufts Medical Center, Inc., priority 2013, dated 2020):
Marks after values point to notes of the source that are not given here.

Tests used:
endoglin [1] = target: T1, endoglin (Homo sapiens, UniProt P17813); assay: TGFβ1 stimulation of left ventricular fibroblasts (LVFB) pretreated with N-Eng Ab; assay type: cell-based, mouse and human; conditions: N-Eng Ab 10, 50, 100 μg/mL, TGFβ1 10 ng/mL
T1 construct: endogenous in cells; host or cells: primary right and left ventricular cardiac fibroblasts (mouse and/or human)
T1 sequence (P17813 26-658): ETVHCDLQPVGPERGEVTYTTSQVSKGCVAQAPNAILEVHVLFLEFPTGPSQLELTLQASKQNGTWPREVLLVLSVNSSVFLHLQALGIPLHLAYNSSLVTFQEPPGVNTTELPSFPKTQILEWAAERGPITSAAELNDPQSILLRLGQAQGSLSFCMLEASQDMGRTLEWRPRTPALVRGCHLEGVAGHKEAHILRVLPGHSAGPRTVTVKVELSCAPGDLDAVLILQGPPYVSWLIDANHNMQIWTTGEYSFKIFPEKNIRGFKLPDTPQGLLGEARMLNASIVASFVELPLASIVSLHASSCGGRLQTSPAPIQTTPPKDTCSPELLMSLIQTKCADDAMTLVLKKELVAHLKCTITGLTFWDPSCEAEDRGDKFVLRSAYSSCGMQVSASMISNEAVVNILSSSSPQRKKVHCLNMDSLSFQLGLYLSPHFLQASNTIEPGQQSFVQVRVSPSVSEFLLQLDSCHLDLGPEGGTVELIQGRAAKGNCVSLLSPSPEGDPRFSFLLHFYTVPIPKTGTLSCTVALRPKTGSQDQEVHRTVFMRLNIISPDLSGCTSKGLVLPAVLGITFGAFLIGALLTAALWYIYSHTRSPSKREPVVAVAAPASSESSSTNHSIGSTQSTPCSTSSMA
Procedure: (§1) 115:67-75, 2007 and Neuss et al., Cell Tissue Res. 286:145-153, 1996. For neutralizing antibody studies in vitro, mouse cardiac fibroblasts were pretreated with 10, 50, or 100 ug/mL of either a N-Eng Ab or control IgG Ab for 24 hours in fibroblast basal medium without supplementation prior to stimulation with TGFβ1 (10 ng/mL). After 24 hours, cells were harvested for analysis. […] 7:e5-920, 2012.

endoglin [2] = assay: TGFβ1 stimulation of right ventricular fibroblasts (RVFB) pretreated with N-Eng Ab; assay type: cell-based, mouse and human; conditions: N-Eng Ab 10, 50, 100 μg/mL, TGFβ1 10 ng/mL
Procedure: as §1

endoglin [3] = target: T2, endoglin (Mus musculus, UniProt Q63961); assay: Severe RVPO induced by PAC for 7 days in wild-type mice pre-treated with N-Eng Ab
T2 sequence (Q63961 27-653): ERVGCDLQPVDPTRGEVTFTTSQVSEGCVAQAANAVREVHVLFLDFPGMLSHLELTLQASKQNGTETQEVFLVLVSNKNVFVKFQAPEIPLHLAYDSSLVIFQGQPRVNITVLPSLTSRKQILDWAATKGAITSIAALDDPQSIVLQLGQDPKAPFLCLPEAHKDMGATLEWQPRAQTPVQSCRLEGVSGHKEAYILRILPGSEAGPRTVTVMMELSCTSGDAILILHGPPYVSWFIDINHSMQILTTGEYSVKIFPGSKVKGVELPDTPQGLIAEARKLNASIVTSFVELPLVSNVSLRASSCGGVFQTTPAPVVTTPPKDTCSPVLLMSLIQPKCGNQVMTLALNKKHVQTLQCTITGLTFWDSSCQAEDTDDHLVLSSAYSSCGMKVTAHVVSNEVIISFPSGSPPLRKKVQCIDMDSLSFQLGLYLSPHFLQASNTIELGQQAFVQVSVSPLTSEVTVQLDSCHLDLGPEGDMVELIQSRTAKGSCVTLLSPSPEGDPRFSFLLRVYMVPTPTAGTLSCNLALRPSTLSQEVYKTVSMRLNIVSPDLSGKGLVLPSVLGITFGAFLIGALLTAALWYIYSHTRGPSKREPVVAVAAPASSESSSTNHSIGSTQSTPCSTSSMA
Procedure: (§2) Specifically, mice were intubated using a 24G angiocath and mechanically ventilated (Harvard Apparatus) at 95 breaths per minute with a tidal volume of 0.3 mL with 2.0-2.5% Isoflurane and 100% flow-through oxygen. Depth of anesthesia was monitored by assessing palpebral reflex, toe pinch, respirations, and general response to touch. Using sterile technique, a left thoracotomy was performed to isolate and encircle the main pulmonary artery using a 7-0 nylon suture that is then tied tightly around a pre-sterilized, blunt end needle. After de-airing, the thorax is closed with layered 6-0 Dexon sutures to eliminate the risk of pneumothorax. Post-operative analgesia is immediately provided with subcutaneous buprenorphine 0.1 mL, which is continued twice daily and as needed for an additional 72 hours. Severe RVPO was induced by PAC with a 25G needle for 7 days in WT and Eng+/− mice. To investigate the role of endoglin in RVPO, WT mice received 15 mg/kg of either a neutralizing antibody to endoglin (N-Eng Ab; TRC105; Tracon Pharma) or an IgG1 control antibody (IgG Ab; R&D Systems) via single intraperitoneal injection 1 day prior to and 3 days after induction of severe RVPO. To study the effect of blocking endoglin activity after induction of RVPO, WT mice were randomized to receive biweekly IP injections for three weeks of 15 mg/kg N-Eng Ab or IgG control Ab beginning three weeks after induction of moderate RVPO using a 23G needle for PAC. […] After 7 days of severe PAC or 3 to 6 weeks of moderate RVPO, mice underwent hemodynamic analysis with a RV conductance catheter (Millar Inc) as previously described in Kapur et al., PLoS ONE. […] Briefly, mice were anesthetized with 2.0% isoflurane administered via a non-invasive nose-cone. Body temperature was monitored by a rectal thermistor probe and maintained at 37.5° C. with heating pads and a cycling heat lamp. In the supine position, the right external jugular vein was surgically isolated. A conductance catheter was advanced into the right ventricle for pressure-volume loop acquisition as described in Kapur et al., PLoS ONE. […] After completion of the hemodynamic study, with the animal still under isoflurane anesthesia, the chest was rapidly opened, and the mouse was euthanized by arresting the heart in diastole with 0.3 mL of 1N KCL injected directly into the left ventricle. The heart was then removed and processed for either biochemical or histologic analyses.
(§3) All animals underwent terminal hemodynamic evaluation. Right heart catheterization was performed at the time of sacrifice in all animals. Mice were anesthetized with 2.0% isoflurane administered by a noninvasive nose cone. Body temperature was monitored by a rectal thermistor probe and maintained at 37.5° C. with heating pads and a cycling heat lamp. In the supine position, the right common carotid and right external jugular vein were surgically isolated. Silk ties were placed at the distal ends of both vessels while overhand loops were placed at the proximal ends with 7-0 nylon. A Millar PVR-1035 (Millar Instruments) mouse conductance catheter was used for RV recordings.

endoglin [4] = target: T2, endoglin; assay: Chronic moderate RVPO (PAC), antibody given from week 3 to week 6
Procedure: as §2, §3

[5] = Sham, wild-type mice + N-Eng Ab 15 mg/kg IP
[6] = after severe RVPO, compared to the IgG group
[7] = severe PAC 7 days, N-Eng Ab 15 mg/kg IP 1 day prior and 3 days after
[8] = 6 weeks moderate RVPO, antibody for the last 3 weeks
[9] = moderate PAC 6 weeks, N-Eng Ab 15 mg/kg IP biweekly for the last 3 weeks

Substance: N-Eng Ab: neutralizing IgG1 antibody that binds human and mouse endoglin (TRC105), provided by Tracon Pharmaceuticals
- TGFβ1 induced calcineurin protein expression (endoglin [1]): not LVFB
- TGFβ1 induced protein levels of pERK-1/2 (endoglin [1]): inhibited
- TGFβ1 induced protein levels of pSmad-3 (endoglin [1]): inhibited
- TGFβ1 induced α-SMA protein expression (endoglin [1]): not LVFB
- TGFβ1 induced calcineurin protein expression (endoglin [1]; listed as TRC105): not LV fibroblasts
- TGFβ1 induced calcineurin protein expression (endoglin [2]): inhibited
- TGFβ1 induced protein levels of pERK-1/2 (endoglin [2]): inhibited
- TGFβ1 induced protein levels of pSmad-3 (endoglin [2]): inhibited
- TGFβ1 induced α-SMA protein expression (endoglin [2]): inhibited
- TGFβ1 induced calcineurin protein expression (endoglin [2]; listed as TRC105): attenuated
- Cardiac output (endoglin [3]; [5]): 4.0 ± 1 mL/min
- Heart rate (endoglin [3]; [5]): 512 ± 59 beats per min
- LV weight/tibial length (endoglin [3]; [5]): 6 ± 0.01
- RV +dp/dt (endoglin [3]; [5]): 2171 ± 283 mm Hg/sec
- RV end-diastolic pressure (endoglin [3]; [5]): 3 ± 2 mm Hg
- RV stroke volume (endoglin [3]; [5]): 8 ± 2 µL
- RV systolic pressure (endoglin [3]; [5]): 24 ± 3 mm Hg
- RV weight/tibial length (endoglin [3]; [5]): 1.5 ± 0.01 g/mm
- RV −dp/dt (endoglin [3]; [5]): 1963 ± 257 mm Hg/sec
- Total body weight (endoglin [3]; [5]): 28 ± 1 g
- Survival (endoglin [3]; after 7 days of severe RVPO, compared to IgG treatment): improved survival
- RV MYH7 mRNA levels (endoglin [3]; after severe RVPO): reduced
- RV TRPC-6 mRNA levels (endoglin [3]; after severe RVPO): reduced
- RV mass (degree of hypertrophy) (endoglin [3]; after severe RVPO): attenuated
- RV α-SMA mRNA levels (endoglin [3]; after severe RVPO): reduced
- RV Type I collagen levels (endoglin [3]; [6]): reduced
- RV calcineurin levels (endoglin [3]; [6]): reduced
- RV fibrosis (endoglin [3]; [6]): significantly reduced
- RV pERK-1/2 levels (endoglin [3]; [6]): reduced
- RV pSmad-3 levels (endoglin [3]; [6]): reduced
- Cardiac output (endoglin [3]; [7]): 2.4 ± 0.2 mL/min
- Heart rate (endoglin [3]; [7]): 514 ± 52 beats per min
- LV weight/tibial length (endoglin [3]; [7]): 5 ± 0.02
- RV +dp/dt (endoglin [3]; [7]): 4130 ± 563 mm Hg/sec
- RV end-diastolic pressure (endoglin [3]; [7]): 4 ± 2 mm Hg
- RV stroke volume (endoglin [3]; [7]): 5 ± 1 µL
- RV systolic pressure (endoglin [3]; [7]): 53 ± 9 mm Hg
- RV weight/tibial length (endoglin [3]; [7]): 1.9 ± 0.01*^,† g/mm
- RV −dp/dt (endoglin [3]; [7]): 3287 ± 350 mm Hg/sec
- Total body weight (endoglin [3]; [7]): 24 ± 2 g
- RV cardiomyocyte cross sectional area (endoglin [3]; severe RVPO, compared to IgG controls (p=0.09)): trend towards lower cardiomyocyte hypertrophy
- Calcineurin protein expression (endoglin [4]; [8]): reduced
- RV fibrosis (endoglin [4]; [8]): significantly reduced
- Type I collagen protein expression (endoglin [4]; [8]): reduced
- RV fibrosis (endoglin [4]; 6 weeks moderate RVPO, antibody for the last 3 weeks, listed as TRC105): reduced RV fibrosis
- Cardiac output (endoglin [4]; [9]): 1.4 ± 0.6 mL/min
- Heart rate (endoglin [4]; [9]): 550 ± 52 beats per min
- LV weight/tibial length (endoglin [4]; [9]): 4.5 ± 0.2 g/mm
- RV +dp/dt (endoglin [4]; [9]): 4072 ± 875 mm Hg/sec
- RV end-diastolic pressure (endoglin [4]; [9]): 2 ± 1 mm Hg
- RV stroke volume (endoglin [4]; [9]): 3 ± 2 µL
- RV systolic pressure (endoglin [4]; [9]): 69 ± 14 mm Hg
- RV weight/tibial length (endoglin [4]; [9]): 2.5 ± 0.4 g/mm
- RV −dp/dt (endoglin [4]; [9]): 3916 ± 875 mm Hg/sec
- Total body weight (endoglin [4]; [9]): 27 ± 2 g
- Mortality (endoglin [4]; moderate RVPO, any time point): No mortality was observed
